This is an account of results in patent US20030088884A1.

For assay [1], the target named is human LGR8, recombinant, expressed in 293T cells (human) (UniProt Q8WXD0). Description: competition with 5 nM biotinylated ovine INSL3 for 293T cells expressing LGR8, 4 C 24 h, 125I-streptavidin detection.
The target of assay [2] is human LGR7, long form (LGR7(1), 757 amino acids), recombinant, expressed in 293T cells (human), Q9HBX9. The assay can be described thus: cell-based or functional assay.
Chain of human LGR7, long form (LGR7(1), 757 amino acids), recombinant, expressed in 293T cells (human), Q9HBX9 (Q9HBX9 whole entry): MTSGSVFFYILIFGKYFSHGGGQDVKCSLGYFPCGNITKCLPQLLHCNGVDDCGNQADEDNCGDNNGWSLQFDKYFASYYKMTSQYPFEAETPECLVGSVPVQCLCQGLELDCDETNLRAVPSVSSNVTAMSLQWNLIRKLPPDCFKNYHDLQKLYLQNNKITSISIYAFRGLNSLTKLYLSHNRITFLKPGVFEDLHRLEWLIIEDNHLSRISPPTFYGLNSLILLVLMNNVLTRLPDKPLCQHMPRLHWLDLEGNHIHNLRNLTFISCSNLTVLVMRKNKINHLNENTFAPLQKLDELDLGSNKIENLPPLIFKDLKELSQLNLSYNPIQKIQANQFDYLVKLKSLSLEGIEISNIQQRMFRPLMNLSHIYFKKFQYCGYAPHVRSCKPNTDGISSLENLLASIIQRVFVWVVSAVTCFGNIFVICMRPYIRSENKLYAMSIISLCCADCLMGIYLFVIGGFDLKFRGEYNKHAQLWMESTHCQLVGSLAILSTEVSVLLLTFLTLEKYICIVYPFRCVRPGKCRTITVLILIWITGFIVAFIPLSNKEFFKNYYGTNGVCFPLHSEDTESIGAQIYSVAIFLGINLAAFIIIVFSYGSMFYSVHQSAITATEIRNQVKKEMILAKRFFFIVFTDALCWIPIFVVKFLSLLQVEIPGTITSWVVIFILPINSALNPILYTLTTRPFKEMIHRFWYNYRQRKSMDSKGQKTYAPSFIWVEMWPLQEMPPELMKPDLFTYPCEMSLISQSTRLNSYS

Chain of UniProt Q8WXD0 (Q8WXD0 whole entry): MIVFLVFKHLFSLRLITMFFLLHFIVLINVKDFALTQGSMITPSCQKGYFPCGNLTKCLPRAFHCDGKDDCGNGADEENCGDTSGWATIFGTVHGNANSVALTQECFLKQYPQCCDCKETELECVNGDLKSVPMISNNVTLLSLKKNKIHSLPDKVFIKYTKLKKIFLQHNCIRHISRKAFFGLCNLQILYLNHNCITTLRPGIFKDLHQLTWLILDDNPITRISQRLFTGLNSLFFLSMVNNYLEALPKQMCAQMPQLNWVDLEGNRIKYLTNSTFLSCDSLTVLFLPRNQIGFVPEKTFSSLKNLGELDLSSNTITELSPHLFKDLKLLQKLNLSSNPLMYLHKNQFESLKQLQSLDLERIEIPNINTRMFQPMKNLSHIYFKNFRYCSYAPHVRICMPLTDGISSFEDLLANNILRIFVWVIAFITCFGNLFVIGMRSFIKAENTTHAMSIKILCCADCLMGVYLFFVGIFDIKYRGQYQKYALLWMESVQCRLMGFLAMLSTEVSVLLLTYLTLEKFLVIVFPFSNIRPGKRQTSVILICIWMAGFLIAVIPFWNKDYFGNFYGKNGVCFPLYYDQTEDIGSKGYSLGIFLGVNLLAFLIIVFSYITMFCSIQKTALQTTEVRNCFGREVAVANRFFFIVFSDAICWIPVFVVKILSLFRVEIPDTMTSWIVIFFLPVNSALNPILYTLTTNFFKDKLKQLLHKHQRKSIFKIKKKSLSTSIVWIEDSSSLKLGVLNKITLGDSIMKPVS

For the molecule “rat INSL3, chemically synthesized (from UniProt Q9WUK0 103-128; Q9WUK0 103-128) (ligand)”, the ED50 in assay [1] was 12 nM.

B1: porcine relaxin, P01348 161-182; P01348 25-56 (ligand)
chain 1: RMTLSEKCCQVGCIRKDIARLC
chain 2: QSTNDFIKACGRELVRLWVEICGSVSWGRTAL
Take B1: the cAMP production by 293T cells expressing human LGR7 in assay [2] is 0.1 nM.
